Substitutions are numbered along the chain they refer to.

The results in this text go back to patent US20180155411A1 (Stanford University, published 2018).

The target in experiment [1] is VP7 of rotavirus strain 69M (G8P[10]) (human rotavirus). The experiment is described as follows: cell-based or functional assay.
In experiment [2] the target is VP7 of rotavirus strain #321 (G10P[11]) (human rotavirus). The experiment is described as follows: cell-based or functional assay.
Experiment [3] concerns the target VP7 of rotavirus strain OSU (G5P[7]) (porcine rotavirus). The experiment is described as follows: cell-based or functional assay.
The target of experiment [4] is VP7 of rotavirus strain DS1 (G2P[4]) (human rotavirus). Kind of experiment: cell-based or functional assay.
Experiment [5] concerns the target T1, VP7 of rotavirus strain RRV (G3P[3]) (simian rotavirus, UniProt P12476 51-326). The experiment is described as follows: cell-based or functional assay.
For experiment [6], the target named is T2, VP7 of rotavirus strain OSU (G5P[7]) (porcine rotavirus).
T2 construct: whole, on cells; also called OSU G5[7]
Kind of experiment: immunostaining, RV-infected MA104 cells.

The target of experiment [7] is T3, VP7 of rotavirus strain DS1 (G2P[4]) (human rotavirus).
T3 construct: whole, on cells
Kind of experiment: immunostaining, RV-infected MA104 cells.

The target in experiment [8] is T4, VP7 of rotavirus strain ST3 (G4P[6]) (human rotavirus).
T4 construct: whole, on cells
The experiment is described as follows: immunostaining, RV-infected MA104 cells.

In experiment [9] the target is T1, VP7 of rotavirus strain RRV (G3P[3]). Kind of experiment: immunostaining, RV-infected MA104 cells.
Experiment [10] has as its target T5, CDC-9 triple layered particles (TLPs), G1P[8] (human rotavirus). Kind of experiment: ELISA, CDC-9 TLPs.
Experiment [11] deals with T6, VP4 of rotavirus strain Wa (G1P[8]) (human rotavirus, UniProt P11193 1-775).
T6 construct: whole, on cells
Kind of experiment: immunostaining, RV-infected MA104 cells.

Experiment [12] concerns the target VP4 of rotavirus strain 69M (G8P[10]) (human rotavirus). The experiment is described as follows: cell-based or functional assay.
For experiment [13], the target named is VP4 of rotavirus strain #321 (G10P[11]) (human rotavirus). Kind of experiment: cell-based or functional assay.
The target in experiment [14] is T7, VP4 of rotavirus strain DS1 (G2P[4]) (human rotavirus, UniProt Q14197). Kind of experiment: cell-based or functional assay.
Experiment [15] addresses T5, CDC-9 triple layered particles (TLPs), …. The experiment is described as follows: cell-based or functional assay.
The target in experiment [16] is T7, VP4 of rotavirus strain DS1 (G2P[4]). The experiment is described as follows: immunostaining, RV-infected MA104 cells.
The target in experiment [17] is T6, VP4 of rotavirus strain Wa (G1P[8]). Kind of experiment: cell-based or functional assay.
Experiment [18] has as its target T8, VP7 of rotavirus strain Wa (G1P[8]) (human rotavirus, UniProt P03532 51-326). Kind of experiment: cell-based or functional assay.
The target of experiment [19] is T8, VP7 of rotavirus strain Wa (G1P[8]). Kind of experiment: immunostaining, RV-infected MA104 cells.
The target in experiment [20] is VP4 of rotavirus strain OSU (G5P[7]) (porcine rotavirus). The experiment is described as follows: cell-based or functional assay.
For experiment [21], the target named is VP4 of rotavirus strain NCDV (G6P[1]) (bovine rotavirus). The experiment is described as follows: cell-based or functional assay.
The target of experiment [22] is T9, VP4 of rotavirus strain OSU (G5P[7]) (porcine rotavirus).
T9 construct: whole, on cells; also called OSU G5[7]
The experiment is described as follows: immunostaining, RV-infected MA104 cells.

Experiment [23] deals with T10, VP4 of rotavirus strain NCDV (G6P[1]) (bovine rotavirus).
T10 construct: whole, on cells
Kind of experiment: immunostaining, RV-infected MA104 cells.

Experiment [24] addresses T11, VP4 of rotavirus strain ST3 (G4P[6]) (human rotavirus).
T11 construct: whole, on cells
The experiment is described as follows: immunostaining, RV-infected MA104 cells.

T6 sequence (P11193 whole entry): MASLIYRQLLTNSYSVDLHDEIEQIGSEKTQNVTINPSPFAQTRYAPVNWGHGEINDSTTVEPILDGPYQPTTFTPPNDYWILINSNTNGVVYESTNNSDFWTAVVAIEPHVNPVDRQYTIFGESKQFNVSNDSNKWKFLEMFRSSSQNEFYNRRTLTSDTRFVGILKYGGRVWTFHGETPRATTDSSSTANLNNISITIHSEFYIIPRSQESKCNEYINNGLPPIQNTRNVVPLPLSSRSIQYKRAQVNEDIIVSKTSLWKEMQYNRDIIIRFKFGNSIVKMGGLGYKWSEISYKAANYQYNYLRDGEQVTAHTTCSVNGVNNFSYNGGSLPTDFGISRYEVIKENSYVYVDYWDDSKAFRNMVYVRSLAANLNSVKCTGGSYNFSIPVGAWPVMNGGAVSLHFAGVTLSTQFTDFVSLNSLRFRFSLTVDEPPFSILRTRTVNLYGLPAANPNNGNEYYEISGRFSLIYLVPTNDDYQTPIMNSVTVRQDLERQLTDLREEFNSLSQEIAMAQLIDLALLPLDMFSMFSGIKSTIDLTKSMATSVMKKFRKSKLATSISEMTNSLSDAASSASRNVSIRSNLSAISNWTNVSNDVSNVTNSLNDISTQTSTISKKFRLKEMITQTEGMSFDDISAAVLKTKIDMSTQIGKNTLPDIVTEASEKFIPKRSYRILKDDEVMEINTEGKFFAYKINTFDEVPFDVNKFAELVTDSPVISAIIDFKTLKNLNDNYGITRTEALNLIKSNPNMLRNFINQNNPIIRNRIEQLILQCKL
T8 sequence (P03532 51-326 limits assumed): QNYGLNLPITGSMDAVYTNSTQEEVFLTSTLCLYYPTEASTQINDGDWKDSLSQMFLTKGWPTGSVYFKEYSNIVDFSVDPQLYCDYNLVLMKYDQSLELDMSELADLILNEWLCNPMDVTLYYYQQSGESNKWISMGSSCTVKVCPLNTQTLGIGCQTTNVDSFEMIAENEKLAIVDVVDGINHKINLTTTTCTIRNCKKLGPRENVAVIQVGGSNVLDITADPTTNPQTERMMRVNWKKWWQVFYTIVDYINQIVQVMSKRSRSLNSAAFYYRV
T9 sequence (P11114 whole entry): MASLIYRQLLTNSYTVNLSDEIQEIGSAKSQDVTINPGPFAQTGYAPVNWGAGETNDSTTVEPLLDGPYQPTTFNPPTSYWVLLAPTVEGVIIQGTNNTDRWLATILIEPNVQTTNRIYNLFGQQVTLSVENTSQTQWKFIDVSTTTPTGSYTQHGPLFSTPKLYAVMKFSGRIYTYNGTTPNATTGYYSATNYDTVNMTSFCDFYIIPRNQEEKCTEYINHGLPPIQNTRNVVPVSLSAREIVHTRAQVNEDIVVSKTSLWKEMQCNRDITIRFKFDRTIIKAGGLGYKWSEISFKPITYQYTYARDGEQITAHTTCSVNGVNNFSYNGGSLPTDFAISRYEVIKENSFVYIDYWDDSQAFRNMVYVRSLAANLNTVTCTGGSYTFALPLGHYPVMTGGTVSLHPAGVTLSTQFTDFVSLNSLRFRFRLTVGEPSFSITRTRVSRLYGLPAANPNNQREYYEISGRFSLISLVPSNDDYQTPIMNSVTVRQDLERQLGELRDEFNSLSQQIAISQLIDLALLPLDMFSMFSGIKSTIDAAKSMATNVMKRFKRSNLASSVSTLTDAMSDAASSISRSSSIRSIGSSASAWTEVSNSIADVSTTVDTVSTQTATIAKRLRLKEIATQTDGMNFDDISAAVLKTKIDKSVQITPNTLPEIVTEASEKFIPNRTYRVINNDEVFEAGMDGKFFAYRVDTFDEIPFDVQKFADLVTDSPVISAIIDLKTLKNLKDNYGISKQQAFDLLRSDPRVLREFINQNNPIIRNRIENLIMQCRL
T2 sequence (P08406 51-326): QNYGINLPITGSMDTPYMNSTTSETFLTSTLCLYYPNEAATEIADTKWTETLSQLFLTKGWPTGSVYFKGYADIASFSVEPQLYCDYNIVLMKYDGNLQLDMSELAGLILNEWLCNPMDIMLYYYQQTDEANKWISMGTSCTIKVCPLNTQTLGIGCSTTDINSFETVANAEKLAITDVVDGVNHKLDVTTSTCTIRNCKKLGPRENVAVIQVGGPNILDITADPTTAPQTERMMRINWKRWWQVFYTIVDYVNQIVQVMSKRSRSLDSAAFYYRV
T1 sequence (P12476 51-326): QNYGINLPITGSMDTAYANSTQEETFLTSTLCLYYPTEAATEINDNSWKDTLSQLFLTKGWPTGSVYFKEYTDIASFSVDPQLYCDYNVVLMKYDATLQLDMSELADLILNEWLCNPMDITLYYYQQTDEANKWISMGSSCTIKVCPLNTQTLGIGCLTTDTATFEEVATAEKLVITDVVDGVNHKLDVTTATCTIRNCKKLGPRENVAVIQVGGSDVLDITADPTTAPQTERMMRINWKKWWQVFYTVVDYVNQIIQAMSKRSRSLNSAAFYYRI
T10 sequence (P17465 whole entry): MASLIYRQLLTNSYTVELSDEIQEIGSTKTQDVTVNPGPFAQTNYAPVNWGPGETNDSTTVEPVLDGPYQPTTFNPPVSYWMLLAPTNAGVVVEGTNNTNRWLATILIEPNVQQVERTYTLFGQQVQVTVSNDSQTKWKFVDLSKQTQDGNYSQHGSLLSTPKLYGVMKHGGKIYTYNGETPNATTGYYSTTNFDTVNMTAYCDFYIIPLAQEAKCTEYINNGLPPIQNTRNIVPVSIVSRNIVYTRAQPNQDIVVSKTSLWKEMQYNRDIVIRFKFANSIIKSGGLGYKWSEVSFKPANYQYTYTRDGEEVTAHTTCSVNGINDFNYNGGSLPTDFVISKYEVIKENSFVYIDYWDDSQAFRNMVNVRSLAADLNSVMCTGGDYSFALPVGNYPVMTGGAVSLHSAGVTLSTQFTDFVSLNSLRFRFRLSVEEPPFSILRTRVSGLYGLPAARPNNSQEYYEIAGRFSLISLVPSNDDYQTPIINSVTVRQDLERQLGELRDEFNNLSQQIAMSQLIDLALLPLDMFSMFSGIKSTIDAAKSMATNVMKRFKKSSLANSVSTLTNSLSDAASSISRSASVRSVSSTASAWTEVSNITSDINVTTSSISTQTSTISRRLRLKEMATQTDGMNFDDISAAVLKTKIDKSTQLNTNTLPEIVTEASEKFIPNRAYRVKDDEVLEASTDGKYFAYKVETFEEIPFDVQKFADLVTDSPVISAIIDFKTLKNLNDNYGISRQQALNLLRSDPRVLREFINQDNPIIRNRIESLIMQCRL
T3 sequence (P11850 51-326): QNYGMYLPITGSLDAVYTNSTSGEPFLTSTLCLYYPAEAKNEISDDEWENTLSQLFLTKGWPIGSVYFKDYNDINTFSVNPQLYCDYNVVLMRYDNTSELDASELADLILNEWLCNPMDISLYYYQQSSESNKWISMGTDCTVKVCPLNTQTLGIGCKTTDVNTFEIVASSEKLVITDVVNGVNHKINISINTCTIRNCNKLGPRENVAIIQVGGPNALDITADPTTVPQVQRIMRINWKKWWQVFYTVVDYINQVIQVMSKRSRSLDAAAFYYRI
T11 sequence (P11200 whole entry): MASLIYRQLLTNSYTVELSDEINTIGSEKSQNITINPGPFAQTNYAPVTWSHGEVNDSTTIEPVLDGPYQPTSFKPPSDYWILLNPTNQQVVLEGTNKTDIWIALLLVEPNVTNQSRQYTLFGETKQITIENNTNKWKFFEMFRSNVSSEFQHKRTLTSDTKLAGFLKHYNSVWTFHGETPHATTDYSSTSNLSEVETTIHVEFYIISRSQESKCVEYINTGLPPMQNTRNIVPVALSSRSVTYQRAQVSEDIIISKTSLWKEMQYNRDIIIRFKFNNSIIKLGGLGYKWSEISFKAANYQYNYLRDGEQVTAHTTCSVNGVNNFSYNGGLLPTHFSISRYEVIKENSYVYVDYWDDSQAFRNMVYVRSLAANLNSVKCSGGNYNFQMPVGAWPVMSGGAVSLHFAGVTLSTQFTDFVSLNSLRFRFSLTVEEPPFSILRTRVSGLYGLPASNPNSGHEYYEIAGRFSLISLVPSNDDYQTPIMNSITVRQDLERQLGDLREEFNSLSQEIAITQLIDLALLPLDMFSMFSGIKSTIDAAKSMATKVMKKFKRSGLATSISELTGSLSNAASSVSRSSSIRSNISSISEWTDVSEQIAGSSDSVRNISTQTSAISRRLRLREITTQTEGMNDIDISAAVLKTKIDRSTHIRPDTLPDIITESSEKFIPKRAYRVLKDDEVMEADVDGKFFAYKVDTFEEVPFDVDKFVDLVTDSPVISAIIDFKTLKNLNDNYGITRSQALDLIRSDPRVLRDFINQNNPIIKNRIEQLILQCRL
T4 sequence (P10501 51-326): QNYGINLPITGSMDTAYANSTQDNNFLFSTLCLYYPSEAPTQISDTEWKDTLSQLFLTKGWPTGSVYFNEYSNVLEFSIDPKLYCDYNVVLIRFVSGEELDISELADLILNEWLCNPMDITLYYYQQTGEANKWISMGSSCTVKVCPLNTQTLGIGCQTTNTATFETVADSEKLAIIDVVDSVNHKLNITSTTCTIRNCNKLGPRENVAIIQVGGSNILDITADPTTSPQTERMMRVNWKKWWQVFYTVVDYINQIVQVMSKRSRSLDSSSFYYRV

B1: mAb #57 (antibody, V domains shown)
VH: QVQLVESGGGVVQSGRSLRLSCAASGFTFRSYAMHWVRQAPGKGLEWVADLSLDGSHKYADSVRGRFTISSDSSKNTVYLQMNSLRTEDTAIYYCARAAGIMVAGTFLTEFYFDYWGQGTLVTVSS
VL: QSVLTQPPSVSGAPGQRVTISCTGSSSNIGAGYDVHWYQQLPGTAPKLLIYGNIKRPSGVPDRFSGSKSGTSASLAITGLQTEDEADYYCQSYDSSLSAYYVFGTGTRVTVL
notes: also called mAb ID: 57; Mab No. 57
On to B1, for which the in vitro neutralization in experiment [1] and in experiment [2] was > 625 ng/mL throughout. Further, the minimum neutralizing concentration turned out to be 19.5 ng/mL in experiment [3], 4.9 ng/mL in [4] and 1.2 ng/mL in experiment [5]. Also, the Endpoint immunostaining concentration in experiment [6] was 50 ng/mL; in experiment [7], 0.5 ng/mL; in experiment [8], 500 ng/mL; in experiment [9], 5 ng/mL. Moreover, the “Minimum concentration for TLP binding” value in experiment [10] amounted to 0.5 ng/mL.

B2: mAb #2 (antibody, V domains shown)
VH: EVQLVESGGGLVKPGGSLRLSCKASGLIVSDAWMSWVRQSPGKGLEWVGRIKSEINGGTIDYAAPVKGRFTILRDDSKNTLYLQINSLKTEDTAVYYCTTRLLFSPWGQGTLVTVSS
VL: QPVLTQPPSSSASPGESARLTCTLPSDINVAYYNIYWYQQKPGSPPRYLLYYYSDSDQGQGSGVPSRFSGSKDASANTGILFISGLQSEDEADYYCMIWTSNASMFGGGTKLTVL
notes: also called mAb ID: 2; Mab No. 2
Regarding B2, in [11], the Endpoint immunostaining concentration amounted to 5 ng/mL.

B3: mAb #47 (antibody, V domains shown)
VH: QVQLQESGPGLVKPSETLSLTCSVSGGSISVYYWNWIRQSPGKGLEWIASMYYTGITNYNPSLKSRVTMSVDMSKNQFSLKLSSVTAADTAVYYCARTMGIDQNNRGWPPAGYYFGMDVWGQGTTVTVSS
VL: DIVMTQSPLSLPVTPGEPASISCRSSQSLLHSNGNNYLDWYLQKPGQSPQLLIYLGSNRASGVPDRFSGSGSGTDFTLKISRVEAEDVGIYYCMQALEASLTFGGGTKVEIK
notes: also called mAb ID: 47; Mab No. 47
As to B3, the in vitro neutralization in experiment [12] and in experiment [13] was > 625 ng/mL throughout. In addition, the minimum neutralizing concentration in experiment [14] and in experiment [15] was 4.9 ng/mL each time. In addition, the Endpoint immunostaining concentration in [16] and in [11] was 0.5 ng/mL throughout. Besides, the “Minimum concentration for TLP binding” value in experiment [10] came out at 0.5 ng/mL.

B4: mAb #30 (antibody, V domains shown)
VH: QVQLVQSGAEVKKPGASVTVSCKASGYAFTSFYLHWVRQAPGQGLEWMGIINPSDGRTRYAQKFQGRVTMTSDTSTNTVYVELSSLRSEDTAIYYCARGAIGNYNAREALDVWGRGTTVTVSS
VL: EIVMTQSPATLSVSPGESATLSCRASQSINSNLAWYQQKPGQAPRLLIFSASSRATGIPARFSGSGSGTEFTLTISSLQSDDFAVYYCQQYNIWPPEHTFGQGTRLQIK
notes: also called mAb ID: 30; Mab No. 30
For B4, in experiment [17], the minimum neutralizing concentration was found to be 0.6 ng/mL. This molecule also came in with an Endpoint immunostaining concentration in experiment [11] of 5 ng/mL.

B5: mAb #27 (antibody, V domains shown)
VH: QVQLQESGPGLVKPLETLSLTCAVSGVSINSYYWSWIRQPPGKGLEWIGNVFYSGSTKYNPSLESRVAMTVDSSRNQVSLRLNSVTAADTAVYYCAREGVGYGYNNYGGNWFDPWGQGTLVTVSS
VL: EVVLTQSPGTLSLSPGERVTLSCRASQSVTSSNLAWYQQKPGQTPRLLISGASSRATGIPDRFSGSGSGTDFTLTISRLEPEDFAVYYCQQYANSPVTFGGGTKLEIK
notes: also called mAb ID: 27; Mab No. 27
The molecule B5 yielded a minimum neutralizing concentration in experiment [18] of 0.3 ng/mL. The molecule also gave an Endpoint immunostaining concentration in [19] of 0.5 ng/mL.

B6: mAb #46 (antibody, V domains shown)
VH: QVQLQESGPGLVKPSETLSLTCTVSGGSINSYYWSWIRQSPGKGLEWIGYVFYSGITKYNPSLQSRVTISLDMGKNQFSLKLTSVNAADAAVYYCARNFPSYTPDWFFDLWGRGTLVTVSS
VL: EIVLTQSPGTLSLSPGERATLSCRASQSVSSDNLAWYQQKPGQPPRLLIYGASHRATGIPDRFSGSGSGTDFTLTISRLEPEDFAVYHCQQYGSSPLTFGGGTKVEIK
notes: also called mAb ID: 46; Mab No. 46
Consider B6, for which the in vitro neutralization in experiment [1] and in experiment [2] was > 625 ng/mL throughout. Further, in experiment [18], the minimum neutralizing concentration worked out at 2.4 ng/mL. In experiment [19], this molecule displayed an Endpoint immunostaining concentration of 0.5 ng/mL. Moreover, the “Minimum concentration for TLP binding” value in experiment [10] amounted to 0.5 ng/mL.

B7: mAb #41 (antibody, V domains shown)
VH: EVQLVESGGGPVQPGGSLKLSCAASGFTFSNYEMYWVRQAPGKGLEWVSYISTSPAITYYADSVRGRFTISRDNAKSSLYLHMNSLRAEDTAVYYCATISHQQFSSGWNAWFDPWGQGTLVTVSS
VL: NFMLTQPHSVSESPGKTVTISCTGSSGSIASNYVQWYRQRPGSAPTTVIYENYQRPSGVPARFSGSIDRSSNSASLTISGLQTDDEADYYCQSYDNNNLWVFGGGTKLTVL
notes: also called mAb ID: 41; Mab No. 41
B7 displayed a minimum neutralizing concentration in experiment [17] of 0.6 ng/mL. The molecule further gave an Endpoint immunostaining concentration in experiment [11] of 0.5 ng/mL.

B8: mAb #33 (antibody, V domains shown)
VH: DVQLVESGGGLVQPGGPSRLSCSASRFTFSNYAMYWVRQAPGKGLEYVSSISSDGGSTYYAESVKGRFTISRDNSKNTLYLQMRSLRAEDAAVYYCVTDVLRLPYSTGWSPGDFIYWGQGTLVTVSS
VL: DIQMTQSPSILYASVGDRVTITCRASQSVSSWLAWYQQKPGKVPKLLIYQASTLENGVPSRFSGSGSGTEFILTISSLQPDDFATYYCQHYNVLWTFGQGTKVEI
notes: also called mAb ID: 33; Mab No. 33
With B8, the minimum neutralizing concentration in experiment [17] was determined as 2.4 ng/mL. The Endpoint immunostaining concentration in experiment [11] came to 50 ng/mL.

B9: mAb #49 (antibody, V domains shown)
VH: B8 VH with P17S, S18V
VL: DIQMTQSPSILYASVGDRVTITCRASQSVSSWLAWYQQKPGKVPKLLIYQASTLENGVPSRFSGSGSGTEFILTISSLQPDDFATYYCQHYNVLWTFGQGTKVEIK
notes: also called mAb ID: 49; Mab No. 49
B9: the in vitro neutralization in experiment [12] and in experiment [13] was > 625 ng/mL each time. For the same molecule, the values for the minimum neutralizing concentration in experiment [17], in experiment [20] and in experiment [21] were 39.1 ng/mL, 156 ng/mL and 39.1 ng/mL, respectively. Also, the Endpoint immunostaining concentration in experiment [16] amounted to 0.5 ng/mL; in experiment [11], 5 ng/mL; in [22], 5.6 ng/mL; in experiment [23] it was 5.6 ng/mL; in [24], 5 ng/mL. Also, the “Minimum concentration for TLP binding” value in experiment [10] was found to be 5 ng/mL.
